# Laboratory results from paper PMC12881670, “Investigation into ligand selectivity and bias at the formyl peptide receptor family” (The Journal of Pharmacology and Experimental Therapeutics, 2025).
# Where no end group is shown, it is not given here. The star is where a group is joined. For = O=C*
# T1: FLAG-Hs_FPR1 C-terminally fused to Renilla Luciferase 8 (human, UniProt P21462 1-350)
# T1 sequence (looked up): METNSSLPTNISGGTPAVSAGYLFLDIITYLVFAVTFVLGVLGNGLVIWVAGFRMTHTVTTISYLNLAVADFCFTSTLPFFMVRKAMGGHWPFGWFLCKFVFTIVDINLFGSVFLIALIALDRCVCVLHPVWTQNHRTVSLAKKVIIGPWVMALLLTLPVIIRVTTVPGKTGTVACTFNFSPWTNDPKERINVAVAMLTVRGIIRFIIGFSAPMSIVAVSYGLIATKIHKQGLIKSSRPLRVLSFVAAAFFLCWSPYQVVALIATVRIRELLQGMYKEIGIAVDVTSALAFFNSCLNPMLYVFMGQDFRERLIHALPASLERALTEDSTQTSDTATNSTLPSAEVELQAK
# T2: FLAG-Mm_Fpr2 C-terminally fused to Renilla Luciferase 8 (mouse, UniProt O88536 1-351)
# T2 sequence (looked up): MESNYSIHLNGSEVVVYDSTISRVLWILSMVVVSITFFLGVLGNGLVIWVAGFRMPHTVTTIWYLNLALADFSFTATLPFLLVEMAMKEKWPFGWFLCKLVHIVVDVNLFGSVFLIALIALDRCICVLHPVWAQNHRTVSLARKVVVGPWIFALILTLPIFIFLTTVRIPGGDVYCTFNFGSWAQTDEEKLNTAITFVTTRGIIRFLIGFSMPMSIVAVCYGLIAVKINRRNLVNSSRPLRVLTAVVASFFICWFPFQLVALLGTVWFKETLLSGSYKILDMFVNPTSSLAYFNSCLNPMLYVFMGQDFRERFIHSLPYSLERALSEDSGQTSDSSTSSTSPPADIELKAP
# T3: FLAG-Mm_Fpr1 C-terminally fused to Renilla Luciferase 8 (mouse, UniProt P33766 1-364)
# T3 sequence (looked up): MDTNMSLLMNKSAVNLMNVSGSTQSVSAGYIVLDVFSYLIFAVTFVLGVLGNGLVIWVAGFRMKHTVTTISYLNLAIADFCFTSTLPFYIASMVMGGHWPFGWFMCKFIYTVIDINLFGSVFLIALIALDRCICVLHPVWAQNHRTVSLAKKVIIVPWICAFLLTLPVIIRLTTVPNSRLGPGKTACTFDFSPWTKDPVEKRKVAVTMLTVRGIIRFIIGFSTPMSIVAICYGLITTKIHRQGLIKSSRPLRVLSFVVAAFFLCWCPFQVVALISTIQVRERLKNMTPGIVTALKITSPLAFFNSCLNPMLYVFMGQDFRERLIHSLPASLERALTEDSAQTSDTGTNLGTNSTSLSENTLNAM
# T4: FLAG-Hs_FPR2 C-terminally fused to Renilla Luciferase 8 (human, UniProt P25090 1-351)
# T4 sequence (looked up): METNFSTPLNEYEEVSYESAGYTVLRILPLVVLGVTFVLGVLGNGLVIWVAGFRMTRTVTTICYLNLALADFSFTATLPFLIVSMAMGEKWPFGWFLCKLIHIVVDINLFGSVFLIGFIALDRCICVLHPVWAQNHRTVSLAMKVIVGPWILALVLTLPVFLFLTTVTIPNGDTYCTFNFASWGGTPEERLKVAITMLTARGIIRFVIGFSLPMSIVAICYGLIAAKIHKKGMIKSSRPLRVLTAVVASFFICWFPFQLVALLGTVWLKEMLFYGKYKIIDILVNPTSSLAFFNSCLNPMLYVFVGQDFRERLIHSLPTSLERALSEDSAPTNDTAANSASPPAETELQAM
# T5: FLAG-tagged human FPR2 (Hs_FPR2) (human, UniProt P25090 1-351)
# T5 sequence (looked up): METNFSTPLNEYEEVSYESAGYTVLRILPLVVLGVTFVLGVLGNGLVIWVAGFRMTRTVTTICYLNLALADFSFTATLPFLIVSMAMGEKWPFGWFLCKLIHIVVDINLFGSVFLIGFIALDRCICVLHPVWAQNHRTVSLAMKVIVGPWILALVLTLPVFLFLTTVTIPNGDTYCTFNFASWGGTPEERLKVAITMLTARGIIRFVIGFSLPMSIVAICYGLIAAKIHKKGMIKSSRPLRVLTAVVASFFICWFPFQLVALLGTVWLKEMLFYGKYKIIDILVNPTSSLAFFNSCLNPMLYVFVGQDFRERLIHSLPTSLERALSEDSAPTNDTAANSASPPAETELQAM
# T6: FLAG-tagged mouse Fpr1 (Mm_Fpr1) (mouse, UniProt P33766 1-364)
# T6 sequence (looked up): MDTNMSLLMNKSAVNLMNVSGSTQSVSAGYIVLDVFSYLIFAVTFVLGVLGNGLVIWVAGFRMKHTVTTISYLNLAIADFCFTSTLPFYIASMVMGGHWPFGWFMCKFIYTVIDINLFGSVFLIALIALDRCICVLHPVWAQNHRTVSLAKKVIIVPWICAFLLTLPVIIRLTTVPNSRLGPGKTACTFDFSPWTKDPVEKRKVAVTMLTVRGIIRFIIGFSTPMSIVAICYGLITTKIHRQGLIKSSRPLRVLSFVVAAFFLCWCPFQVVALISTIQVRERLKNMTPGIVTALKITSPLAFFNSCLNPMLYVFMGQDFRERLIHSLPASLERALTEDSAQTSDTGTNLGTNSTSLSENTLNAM
# Legend:
# Test in all cases: cell-based or functional assay
# [1] = target: T1, FLAG-Hs_FPR1 C-terminally fused to …
# [2] = target: T2, FLAG-Mm_Fpr2 C-terminally fused to …
# [3] = target: T3, FLAG-Mm_Fpr1 C-terminally fused to …
# [4] = target: T1, FLAG-Hs_FPR1 C-terminally fused to …; remark: listed apart in the source
# [5] = target: T4, FLAG-Hs_FPR2 C-terminally fused to …
# [6] = target: T2, FLAG-Mm_Fpr2 C-terminally fused to …; remark: listed apart in the source
# [7] = target: T3, FLAG-Mm_Fpr1 C-terminally fused to …; remark: listed apart in the source
# [8] = target: T4, FLAG-Hs_FPR2 C-terminally fused to …; remark: listed apart in the source
# [9] = target: T5, FLAG-tagged human FPR2 (Hs_FPR2)
# [10] = target: T6, FLAG-tagged mouse Fpr1 (Mm_Fpr1)
# [11] = target: T5, FLAG-tagged human FPR2 (Hs_FPR2); remark: listed apart in the source
Binder,BRET of receptor-RLuc8 with Arrestin 3-YFP: Emax (% of 1 μM WKYMVm) [2] [%],BRET of receptor-RLuc8 with Arrestin 3-YFP: Log EC50 (M) [2] [log M],BRET of receptor-RLuc8 with Venus-mGsi: Emax (% of 1 μM WKYMVm) [5] [%],BRET of receptor-RLuc8 with Venus-mGsi: Log EC50 (M) [5] [log M],BRET of receptor-RLuc8 with Venus-mGsi: Emax (% of 1 μM WKYMVm) [6] [%],BRET of receptor-RLuc8 with Venus-mGsi: Log EC50 (M) [6] [log M],BRET of receptor-RLuc8 with Venus-mGsi: Emax (% of 1 μM WKYMVm) [7] [%],BRET of receptor-RLuc8 with Venus-mGsi: Log EC50 (M) [7] [log M],also measured
For-Met-Leu-Phe [fMet-Leu-Phe (fMLF)],22.7,-4.71,61.7,-4.05,13.2,-4.58,59.3,-4.93,BRET of receptor-RLuc8 with Arrestin 3-YFP: Emax (% of 1 μM WKYMVm) [1]: 97%; BRET of receptor-RLuc8 with Arrestin 3-YFP: Log EC50 (M) [1]: -7.08 log M; BRET of receptor-RLuc8 with Arrestin 3-YFP: Emax (% of 1 μM WKYMVm) [3]: 83.4%; BRET of receptor-RLuc8 with Arrestin 3-YFP: Log EC50 (M) [3]: -4.68 log M; BRET of receptor-RLuc8 with Venus-mGsi: Emax (% of 1 μM WKYMVm) [4]: 115%; BRET of receptor-RLuc8 with Venus-mGsi: Log EC50 (M) [4]: -6.47 log M
For-MTPMRKINPLMKLIN [MCT-2 (Formyl-MTPMRKINPLMKLIN from Cytochrome b)],12.1,-10.3,44.4,-6.23,25,-4.77,-8.19,-7.78,BRET of receptor-RLuc8 with Arrestin 3-YFP: Emax (% of 1 μM WKYMVm) [8]: 51.8%; BRET of receptor-RLuc8 with Arrestin 3-YFP: Log EC50 (M) [8]: -6.06 log M; ERK1/2 phosphorylation (Western blot): Emax (% of 1 μM WKYMVm) [9]: 93.9%; ERK1/2 phosphorylation (Western blot): Log EC50 (M) [9]: -6.72 log M; receptor internalization (flow cytometry): Emax (% of 1 μM WKYMVm) [10]: 7.39%; receptor internalization (flow cytometry): Log EC50 (M) [10]: -7.24 log M; receptor internalization (flow cytometry): Emax (% of 1 μM WKYMVm) [11]: 63.3%; receptor internalization (flow cytometry): Log EC50 (M) [11]: -6.87 log M
